IC50 (CAGA12 luciferase) data for 20 molecules are collected here from patent US20220064276A1.

B1: SR-AB47-HuFab (Fab, V domains shown)
VH: QVQLVESGGGVVQPGRSLRLSCAASGFTFRSYVMHWVRQAPGKGLEWVAVISHEGSGKYYADSVKGRFTISRDNSKNTLYLQMNSLRAEDTAVYYCARPRIAARRGGFGSWGQGTLVTVSS
VL: NFMLTQPHSVSESPGKTVTISCTRSSGNIDYNYVQWYQQRPGSSPTTVIYEDNVRPSGVPDRFSGSIDSSSNSASLTISGLKTEDEADYYCQSYDYDNQAVVFGGGTKLTVL
B2: SR-AB49-HuFab (Fab, V domains shown)
VH: QVQLVESGGGVVQPGRSLRLSCAASGFTFRSYVMHWVRQAPGKGLEWVAVISHEGSGKYYADSVKGRFTISRDNSKNTLYLQMNSLRAEDTAVYYCARPRIAARRGGFGSWGQGTLVTVSS
VL: NFMLTQPHSVSESPGKTVTISCTRSSGNIDYNYVQWYQQRPGSSPTTVIYEDNVRPSGVPDRFSGSIDSSSNSASLTISGLKTEDEADYYCQGYDWDTQGVVFGGGTKLTVL
B3: SR-AB57-HuFab (Fab, V domains shown)
VH: QVQLVESGGGVVQPGRSLRLSCAASGFTFRSYVMHWVRQAPGKGLEWVAVISHEGSGKYYADSVKGRFTISRDNSKNTLYLQMNSLRAEDTAVYYCALPRIAARRGGFGSWGQGTLVTVSS
VL: NFMLTQPHSVSESPGKTVTISCTRSSGNIDYNYVQWYQQRPGSSPTTVIYEDNVRPSGVPDRFSGSIDSSSNSASLTISGLKTEDEADYYCQGYDWDTQGVVFGGGTKLTVL
B4: SR-AB48-HuFab (Fab, V domains shown)
VH: QVQLVESGGGVVQPGRSLRLSCAASGFTFRSYVMHWVRQAPGKGLEWVAVISHEGSGKYYADSVKGRFTISRDNSKNTLYLQMNSLRAEDTAVYYCARPRIAARRGGFGSWGQGTLVTVSS
VL: NFMLTQPHSVSESPGKTVTISCTRSSGNIDYNYVQWYQQRPGSSPTTVIYEDNVRPSGVPDRFSGSIDSSSNSASLTISGLKTEDEADYYCQSYDYDTQGVVFGGGTKLTVL
B5: SR-AB54-HuFab (Fab, V domains shown)
VH: QVQLVESGGGVVQPGRSLRLSCAASGFTFRSYVMHWVRQAPGKGLEWVAVISHEGSGKYYADSVKGRFTISRDNSKNTLYLQMNSLRAEDTAVYYCALPRIAARRGGFGSWGQGTLVTVSS
VL: NFMLTQPHSVSESPGKTVTISCTRSSGNIDYNYVQWYQQRPGSSPTTVIYEDNVRPSGVPDRFSGSIDSSSNSASLTISGLKTEDEADYYCQSYDSDNQRVVFGGGTKLTVL
B6: SR-AB46-HuFab (Fab, V domains shown)
VH: QVQLVESGGGVVQPGRSLRLSCAASGFTFRSYVMHWVRQAPGKGLEWVAVISHEGSGKYYADSVKGRFTISRDNSKNTLYLQMNSLRAEDTAVYYCARPRIAARRGGFGSWGQGTLVTVSS
VL: NFMLTQPHSVSESPGKTVTISCTRSSGNIDYNYVQWYQQRPGSSPTTVIYEDNVRPSGVPDRFSGSIDSSSNSASLTISGLKTEDEADYYCQSYDSDNQRVVFGGGTKLTVL
B7: SR-AB52-HuFab (Fab, V domains shown)
VH: QVQLVESGGGVVQPGRSLRLSCAASGFTFRSYVMHWVRQAPGKGLEWVAVISHEGSGKYYADSVKGRFTISRDNSKNTLYLQMNSLRAEDTAVYYCARPRIAARRGGFGTWGQGTLVTVSS
VL: NFMLTQPHSVSESPGKTVTISCTRSSGNIDYNYVQWYQQRPGSSPTTVIYEDNVRPSGVPDRFSGSIDSSSNSASLTISGLKTEDEADYYCQSYDYDTQGVVFGGGTKLTVL
B8: SR-AB58-HuFab (Fab, V domains shown)
VH: QVQLVESGGGVVQPGRSLRLSCAASGFTFRSYVMHWVRQAPGKGLEWVAVISHEGSGKYYADSVKGRFTISRDNSKNTLYLQMNSLRAEDTAVYYCALPRIAARRGGFGTWGQGTLVTVSS
VL: NFMLTQPHSVSESPGKTVTISCTRSSGNIDYNYVQWYQQRPGSSPTTVIYEDNVRPSGVPDRFSGSIDSSSNSASLTISGLKTEDEADYYCQSYDSDNQRVVFGGGTKLTVL
B9: SR-AB23 Fab (Fab, V domains shown)
VH: QVQLVESGGGVVQPGRSLRLSCAASGFTFRSYVMHWVRQAPGKGLEWVAVISHEGSLKYYADSVKGRFTISRDNSKNTLYLQMNSLRAEDTAVYYCARPRIAARRGGFGYWGQGTLVTVSS
VL: NFMLTQPHSVSESPGKTVTISCTRSSGNIDNNYVQWYQQRPGSSPTTVIYEDNQRPSGVPDRFSGSIDSSSNSASLTISGLKTEDEADYYCQSYDSDNQGVVFGGGTKLTVL
B10: SR-AB56-HuFab (Fab, V domains shown)
VH: QVQLVESGGGVVQPGRSLRLSCAASGFTFRSYVMHWVRQAPGKGLEWVAVISHEGSGKYYADSVKGRFTISRDNSKNTLYLQMNSLRAEDTAVYYCALPRIAARRGGFGSWGQGTLVTVSS
VL: NFMLTQPHSVSESPGKTVTISCTRSSGNIDYNYVQWYQQRPGSSPTTVIYEDNVRPSGVPDRFSGSIDSSSNSASLTISGLKTEDEADYYCQSYDYDTQGVVFGGGTKLTVL
B11: SR-AB61-HuFab (Fab, V domains shown)
VH: QVQLVESGGGVVQPGRSLRLSCAASGFTFRSYVMHWVRQAPGKGLEWVAVISHEGSGKYYADSVKGRFTISRDNSKNTLYLQMNSLRAEDTAVYYCALPRIAARRGGFGTWGQGTLVTVSS
VL: NFMLTQPHSVSESPGKTVTISCTRSSGNIDYNYVQWYQQRPGSSPTTVIYEDNVRPSGVPDRFSGSIDSSSNSASLTISGLKTEDEADYYCQGYDWDTQGVVFGGGTKLTVL
B12: SR-AB41 Fab (Fab, V domains shown)
VH: QVQLVESGGGVVQPGRSLRLSCAASGFTFRSYVMHWVRQAPGKGLEWVAVISHEGSLKYYADSVKGRFTISRDNSKNTLYLQMNSLRAEDTAVYYCARPRIAARRGGFGYWGQGTLVTVSS
VL: NFMLTQPHSVSESPGKTVTISCTRSSGNIDNNYVQWYQQRPGSSPTTVIYEDNQRPSGVPDRFSGSIDSSSNSASLTISGLKTEDEADYYCQSYDYDNQAVVFGGGTKLTVL
B13: SR-AB55-HuFab (Fab, V domains shown)
VH: QVQLVESGGGVVQPGRSLRLSCAASGFTFRSYVMHWVRQAPGKGLEWVAVISHEGSGKYYADSVKGRFTISRDNSKNTLYLQMNSLRAEDTAVYYCALPRIAARRGGFGSWGQGTLVTVSS
VL: NFMLTQPHSVSESPGKTVTISCTRSSGNIDYNYVQWYQQRPGSSPTTVIYEDNVRPSGVPDRFSGSIDSSSNSASLTISGLKTEDEADYYCQSYDYDNQAVVFGGGTKLTVL
B14: SR-AB60-HuFab (Fab, V domains shown)
VH: QVQLVESGGGVVQPGRSLRLSCAASGFTFRSYVMHWVRQAPGKGLEWVAVISHEGSGKYYADSVKGRFTISRDNSKNTLYLQMNSLRAEDTAVYYCALPRIAARRGGFGTWGQGTLVTVSS
VL: NFMLTQPHSVSESPGKTVTISCTRSSGNIDYNYVQWYQQRPGSSPTTVIYEDNVRPSGVPDRFSGSIDSSSNSASLTISGLKTEDEADYYCQSYDYDTQGVVFGGGTKLTVL
B15: SR-AB59-HuFab (Fab, V domains shown)
VH: QVQLVESGGGVVQPGRSLRLSCAASGFTFRSYVMHWVRQAPGKGLEWVAVISHEGSGKYYADSVKGRFTISRDNSKNTLYLQMNSLRAEDTAVYYCALPRIAARRGGFGTWGQGTLVTVSS
VL: NFMLTQPHSVSESPGKTVTISCTRSSGNIDYNYVQWYQQRPGSSPTTVIYEDNVRPSGVPDRFSGSIDSSSNSASLTISGLKTEDEADYYCQSYDYDNQAVVFGGGTKLTVL
B16: SR-AB50-HuFab (Fab, V domains shown)
VH: QVQLVESGGGVVQPGRSLRLSCAASGFTFRSYVMHWVRQAPGKGLEWVAVISHEGSGKYYADSVKGRFTISRDNSKNTLYLQMNSLRAEDTAVYYCARPRIAARRGGFGTWGQGTLVTVSS
VL: NFMLTQPHSVSESPGKTVTISCTRSSGNIDYNYVQWYQQRPGSSPTTVIYEDNVRPSGVPDRFSGSIDSSSNSASLTISGLKTEDEADYYCQSYDSDNQRVVFGGGTKLTVL
B17: SR-AB43-HuFab (Fab, V domains shown)
VH: QVQLVESGGGVVQPGRSLRLSCAASGFTFRSYVMHWVRQAPGKGLEWVAVISHEGSLKYYADSVKGRFTISRDNSKNTLYLQMNSLRAEDTAVYYCARPRIAARRGGFGYWGQGTLVTVSS
VL: NFMLTQPHSVSESPGKTVTISCTRSSGNIDYNYVQWYQQRPGSSPTTVIYEDNVRPSGVPDRFSGSIDSSSNSASLTISGLKTEDEADYYCQSYDSDNQRVVFGGGTKLTVL
B18: SR-AB42-HuFab (Fab, V domains shown)
VH: QVQLVESGGGVVQPGRSLRLSCAASGFTFRSYVMHWVRQAPGKGLEWVAVISHEGSLKYYADSVKGRFTISRDNSKNTLYLQMNSLRAEDTAVYYCARPRIAARRGGFGYWGQGTLVTVSS
VL: NFMLTQPHSVSESPGKTVTISCTRSSGNIDNNYVQWYQQRPGSSPTTVIYEDNQRPSGVPDRFSGSIDSSSNSASLTISGLKTEDEADYYCQSYDYDTQGVVFGGGTKLTVL
B19: SR-AB51-HuFab (Fab, V domains shown)
VH: QVQLVESGGGVVQPGRSLRLSCAASGFTFRSYVMHWVRQAPGKGLEWVAVISHEGSGKYYADSVKGRFTISRDNSKNTLYLQMNSLRAEDTAVYYCARPRIAARRGGFGTWGQGTLVTVSS
VL: NFMLTQPHSVSESPGKTVTISCTRSSGNIDYNYVQWYQQRPGSSPTTVIYEDNVRPSGVPDRFSGSIDSSSNSASLTISGLKTEDEADYYCQSYDYDNQAVVFGGGTKLTVL
B20: SR-AB53-HuFab (Fab, V domains shown)
VH: QVQLVESGGGVVQPGRSLRLSCAASGFTFRSYVMHWVRQAPGKGLEWVAVISHEGSGKYYADSVKGRFTISRDNSKNTLYLQMNSLRAEDTAVYYCARPRIAARRGGFGTWGQGTLVTVSS
VL: NFMLTQPHSVSESPGKTVTISCTRSSGNIDYNYVQWYQQRPGSSPTTVIYEDNVRPSGVPDRFSGSIDSSSNSASLTISGLKTEDEADYYCQGYDWDTQGVVFGGGTKLTVL

The assay addresses LTBP-proTGFβ1 in the LN229 CAGA12 assay of Table 20 (endogenous or over-expressed murine LTBP1 not stated). In words: cell-based or functional assay.
For the molecule B1, the IC50 (CAGA12 luciferase) was determined as 0.186 nM.

Consider B2, for which the IC50 (CAGA12 luciferase) was 1.02 nM.

Consider B3, for which the IC50 (CAGA12 luciferase) was 0.775 nM.

As for B4, the IC50 (CAGA12 luciferase) came to 0.523 nM.

Consider B5, for which the IC50 (CAGA12 luciferase) is 5.87 nM.

In turn, B6 showed an IC50 (CAGA12 luciferase) of 0.495 nM.

As for B7, the IC50 (CAGA12 luciferase) amounted to 0.459 nM.

With B8, the IC50 (CAGA12 luciferase) amounted to 4.86 nM.

Turning to B9, the IC50 (CAGA12 luciferase) was 8.53 nM.

Molecule B10 returned an IC50 (CAGA12 luciferase) of 0.439 nM.

The molecule B11 registered an IC50 (CAGA12 luciferase) of 0.47 nM.

As to B12, the IC50 (CAGA12 luciferase) was 0.486 nM.

As for B13, the IC50 (CAGA12 luciferase) was 0.536 nM.

As to B14, the IC50 (CAGA12 luciferase) was 0.742 nM.

The molecule B15 came in with an IC50 (CAGA12 luciferase) of 0.195 nM.

As for B16, the IC50 (CAGA12 luciferase) worked out at 11 nM.

With B17, the IC50 (CAGA12 luciferase) was found to be 1.08 nM.

On to B18, for which the IC50 (CAGA12 luciferase) came out at 0.667 nM.

Turning to B19, the IC50 (CAGA12 luciferase) is 0.535 nM.

Regarding B20, the IC50 (CAGA12 luciferase) worked out at 1.18 nM.
